Assay results reported in paper PMC10878525.
Read-outs that look alike come from different tables or passages of the source.

Columns and labels:
[1] = biological target: chicken sodium hydrogen exchanger isoform 1 (chNHE1), expressed on 293T cells (pCAF-chNHE1) (chicken); experiment: virus-cell binding assay read by RT-qPCR; 293T cells transfected with pCAF-chNHE1, exposed to rescued virus at MOI 50 for 1 h at 4 °C, washed five times; gp85 gene RT-qPCR against human GAPDH
[2] = biological target: chicken sodium hydrogen exchanger isoform 1 (chNHE1), expressed on 293T cells (pCAF-chNHE1) (chicken); experiment: flow cytometry on cells; virus-cell binding: 293T cells transfected with pCAF-chNHE1 incubated with 50 MOI rescued virus 1 h on ice; stained with 4A3 anti-gp85 and FITC secondary, anti-FLAG co-staining
[3] = biological target: soluble chECL1 protein (chicken); experiment: SPR; Biacore 8K; chECL1 immobilised on a CM5 chip to about 100 RU; serial dilutions of gp85 flowed; 10 mM HEPES pH 7.2, 150 mM NaCl, 0.05% Tween-20; 1:1 binding model
[4] = biological target: chicken sodium hydrogen exchanger isoform 1 (chNHE1), expressed on 293T cells (pCAF-chNHE1) (chicken); experiment: flow cytometry on cells
[5] = biological target: chECL1, first extracellular loop of chNHE1, with a C-terminal HA tag (chicken); experiment: co-IP
[6] = biological target: chicken sodium hydrogen exchanger isoform 1 (chNHE1), expressed on 293T cells (pCAF-chNHE1) (chicken); experiment: flow cytometry on cells; protein-cell binding assay: purified gp85-Fc (0.5 mL of 200 ng/uL; 300, 200 and 50 ng/uL in Fig 2A) incubated 1 h on ice with 293T cells transfected with pCAF-chNHE1; anti-human IgG (Fc specific)-FITC, anti-FLAG co-staining
[7] = biological target: soluble chECL1 protein (chicken); experiment: SPR; Biacore 8K; chECL1 immobilised on a CM5 chip to about 100 RU; serial dilutions of gp85 flowed; 10 mM HEPES pH 7.2, 150 mM NaCl, 0.05% Tween-20; 1:1 binding model; remark: listed apart in the source
[8] = biological target: chECL1, first extracellular loop of chNHE1, with a C-terminal HA tag (chicken); experiment: co-IP; 293T cells co-transfected with chECL1 (HA) and pCAF-gp85 plasmids for 48 h; lysates on anti-HA-agarose; blot with 4A3 and anti-HA; gp85 intensities normalised to input

In the case of “Env of the recombinant virus rHPRS103-N123I (N123I in gp85), on virions (complex)”, the fold binding capacity against rHPRS103 (RT-qPCR) [1] is reported as 7.14 fold and the fold binding capacity against rHPRS103 (FACS) [2] is reported as 1.27 fold.

“Env of the recombinant virus rHPRS/JL3-1 (gp85 of JL08CH3-1 on the HPRS103 backbone), on virions (complex)” was tested, and the fold binding capacity against rHPRS103 (RT-qPCR) [1] was 7.96 fold and the fold binding capacity against rHPRS103 (FACS) [2] was 1.29 fold.

Work on “JL08CH3-1-gp85 (CAG-JL3-1-gp85-Fc) (Fc fusion)” yielded a Kd [3] of 109 nM, a binding rate at 50 ng/μL [4] of 58.5% and a binding rate at 200 ng/μL [4] of 85%. The binding rate at 300 ng/μL [4] was 87.9%.

With “JL08CH3-1-gp85 (pCAF-JL3-1-gp85) (natural protein)” the fold binding capacity against HPRS103-gp85 [5] was 1.3 fold.

With “N123I-gp85 (CAG-N123I-gp85-Fc) (Fc fusion)” the fold binding capacity against HPRS103-gp85 [6] was 1.3 times and the Kd [7] was 135 nM.

“N123I-gp85 (pCAF-N123I-gp85) (natural protein)” showed a fold binding against HPRS103-gp85 [8] of 1.6 fold.

“N123I/V128F mutant gp85 (on CAG-sgp85-Fc backbone) (Fc fusion)” gave a fold binding capacity against HPRS103-gp85 [6] of 1.3 times.

“soluble HPRS103-gp85 (CAG-sgp85-Fc) (Fc fusion)” gave a Kd [3] of 584 nM, a binding rate at 50 ng/μL [4] of 9.7% and a binding rate at 200 ng/μL [4] of 59.2%. It also gave a binding rate at 300 ng/μL [4] of 70% and a Kd [7] of 547 nM.
